Measured values published in publication PMC3060798, “Molecular Determinants of S100B Oligomer Formation” (PLoS ONE, 2011).
“And” between values parts separate entries of the source, which are not always exact repeats. Identical values can stand only once.

Legend:
[1] = target: the molecule itself; assay: SEC; hexamer, tetramer and dimer fractions collected after imidazol triggering, reinjected on Superdex 200 and analysed repeatedly during storage for up to 6 months in solution at 4 °C
[2] = target: T1, p53 target peptide (Met followed by residues 367-388 of p53, Phe 385 changed to Trp) (Phe 385 changed to Trp (stands in the printed letters)); assay: other fluorescence titration; p53 peptide (0.07-1.3 µM) titrated with S100B dimer, tetramer or hexamer stock; 10 mM BisTris, 5 mM CaCl2, pH 7, 25 °C; Trp emission at 330 nm, excitation 295 nm; 1:1 binding model fitted against total S100B monomer concentration; conditions: both partners purified
T1 construct: added Met before the p53 residues; p53, C-terminal regulatory domain, residues 367-388 with Phe 385 changed to Trp; the peptide was cleaved off; also called p53 peptide; target peptide from p53; source: E. coli ER2566, purified (DEAE cellulose, chitin column, cleaved off from the intein with 50 mM DTT, G25 gel filtration)
T1 peptide: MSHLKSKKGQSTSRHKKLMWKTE

[3] = target: the molecule itself; assay: SEC; analytical gel filtration on Superdex 200; step: dimers to tetramer, hexamer and higher oligomers; 20 mg/ml trigger-free S100B dimer with imidazol (20-900 mM, optimum 90 mM), 1 mM EDTA, 1 mM DTT, 0.25 M NaCl, pH 7.0, lyophilized, dissolved, incubated 24 h at 4 °C
[4] = target: the molecule itself; assay: dynamic light scattering; ZetaSizer Nano-S; fractions collected directly from the Superdex200 column in 25 mM sodium carbonate with 25 mM HCl, pH 7.3

B1: S100B dimer (highly pure, trigger-free) (natural protein, rat, UniProt P04631 1-92, looked up)
chain: MSELEKAMVALIDVFHQYSGREGDKHKLKKSELKELINNELSHFLEEIKEQEVVDKVMETLDEDGDGECDFQEFMAFVSMVTTACHEFFEHE
notes: S100B, rat; plasmid with the rat S100B gene (gift from D. Weber); monomer 10.7 kDa, dimer 21.5 kDa as printed; Homodimer; No tag is mentioned; In rows of m1 with m1 the step meant (monomers to dimer, or dimers to tetramer and higher) is told in the assay's format; also called trigger-free S100B; trigger-free S100B dimer
[1]
  stoichiometry N: 2
[2]
  stoichiometry N: 2 peptides per dimer
[3]
  stoichiometry N: 4 and 6

B2: S100B hexamer (natural protein, rat, UniProt P04631 1-92, looked up)
chain: MSELEKAMVALIDVFHQYSGREGDKHKLKKSELKELINNELSHFLEEIKEQEVVDKVMETLDEDGDGECDFQEFMAFVSMVTTACHEFFEHE
notes: S100B, rat; same chain as m1, isolated as hexamer (64.5 kDa expected); Same polypeptide as m1 in another oligomeric state; free of imidazol after gel filtration; also called hexamer fraction; source: E. coli BL21 De3 PLysS star; trigger-free dimer triggered with 90 mM imidazol, hexamer fraction collected from Superdex 200 gel filtration
[4]
  stoichiometry N: 6
[2]
  stoichiometry N: 6 peptides per hexamer

B3: S100B tetramer (natural protein, rat, UniProt P04631 1-92, looked up)
chain: MSELEKAMVALIDVFHQYSGREGDKHKLKKSELKELINNELSHFLEEIKEQEVVDKVMETLDEDGDGECDFQEFMAFVSMVTTACHEFFEHE
notes: S100B, rat; same chain as m1, isolated as tetramer (43.0 kDa expected); Same polypeptide as m1 in another oligomeric state; free of imidazol after gel filtration; also called tetramer fraction; source: E. coli BL21 De3 PLysS star; trigger-free dimer triggered with 90 mM imidazol, tetramer fraction collected from Superdex 200 gel filtration
[4]
  stoichiometry N: 4
[2]
  stoichiometry N: 4 peptides per tetramer
